Values belong to the binder of their own block, whether it stands above or below them. Numbered stars: 1 amine (or outer) side, 2 acyl side, 3 side chain; on linkers, the order of the positions; unused ones are H or OH. Bridge positions count the residues as written; N and C are the ends. * marks the point of attachment. C20 diacid = O=C(O)CCCCCCCCCCCCCCCCCCC(=O)*; γGlu = O=C(O)[C@H](CCC(=O)[*:2])N[*:1]
Tests used:
[1] = target: T1, human amylin receptor (amylin 3(a) receptor: human calcitonin receptor with RAMP-3) (human, UniProt P30988 25-474; O60896 24-148); test: cell-based or functional assay
T1 sequence (looked up) 1: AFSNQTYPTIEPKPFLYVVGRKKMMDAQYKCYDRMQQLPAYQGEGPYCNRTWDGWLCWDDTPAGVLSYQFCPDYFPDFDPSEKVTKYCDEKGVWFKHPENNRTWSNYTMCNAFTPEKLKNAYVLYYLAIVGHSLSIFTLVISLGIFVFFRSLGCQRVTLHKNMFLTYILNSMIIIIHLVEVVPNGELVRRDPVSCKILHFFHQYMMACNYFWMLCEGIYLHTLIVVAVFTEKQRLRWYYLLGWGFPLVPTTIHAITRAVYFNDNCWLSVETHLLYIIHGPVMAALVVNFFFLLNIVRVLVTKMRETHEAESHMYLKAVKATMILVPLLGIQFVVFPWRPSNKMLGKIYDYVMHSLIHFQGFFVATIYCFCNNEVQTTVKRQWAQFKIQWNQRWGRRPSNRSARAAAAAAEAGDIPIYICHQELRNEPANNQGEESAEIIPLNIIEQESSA
T1 sequence (looked up) 2: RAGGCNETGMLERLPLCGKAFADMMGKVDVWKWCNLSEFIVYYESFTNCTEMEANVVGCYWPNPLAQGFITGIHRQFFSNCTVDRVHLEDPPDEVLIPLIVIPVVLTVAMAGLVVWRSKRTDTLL

[2] = target: T2, human calcitonin receptor (human, UniProt P30988 25-474); test: cell-based or functional assay
T2 sequence (looked up): T1 sequence (looked up) 1

hAmylin-R funct. EC50 [1]: 0.134 nM
Ratio hCT/hAmylin funct. [2]: 12.6
hCTR funct. EC50 [2]: 1.68 nM
B1: N^α1-[(4S)-4-carboxy-4-(19-carboxynonadecanoylamino)butanoyl]-[His14,Arg17,Pro21,Pro27,Glu35]-h-amylin (peptide)
peptide: {C20 diacid-γGlu}-KCNTATCATQRLAHFLRHSSPNFGAIPSSTNVGSETY-NH2
modifications: disulfide 2-7
SMILES: CC[C@H](C)[C@H](NC(=O)[C@H](C)NC(=O)CNC(=O)[C@H](Cc1ccccc1)NC(=O)[C@H](CC(N)=O)NC(=O)[C@@H]1CCCN1C(=O)[C@H](CO)NC(=O)[C@H](CO)NC(=O)[C@H](Cc1c[nH]cn1)NC(=O)[C@H](CCCNC(=N)N)NC(=O)[C@H](CC(C)C)NC(=O)[C@H](Cc1ccccc1)NC(=O)[C@H](Cc1c[nH]cn1)NC(=O)[C@H](C)NC(=O)[C@H](CC(C)C)NC(=O)[C@H](CCCNC(=N)N)NC(=O)[C@H](CCC(N)=O)NC(=O)[C@@H](NC(=O)[C@H](C)NC(=O)[C@@H]1CSSC[C@H](NC(=O)[C@H](CCCCN)NC(=O)CC[C@H](NC(=O)CCCCCCCCCCCCCCCCCCC(=O)O)C(=O)O)C(=O)N[C@@H](CC(N)=O)C(=O)N[C@@H]([C@@H](C)O)C(=O)N[C@@H](C)C(=O)N[C@@H]([C@@H](C)O)C(=O)N1)[C@@H](C)O)C(=O)N1CCC[C@H]1C(=O)N[C@@H](CO)C(=O)N[C@@H](CO)C(=O)N[C@H](C(=O)N[C@@H](CC(N)=O)C(=O)N[C@H](C(=O)NCC(=O)N[C@@H](CO)C(=O)N[C@@H](CCC(=O)O)C(=O)N[C@H](C(=O)N[C@@H](Cc1ccc(O)cc1)C(N)=O)[C@@H](C)O)C(C)C)[C@@H](C)O
notes: also called compound 30

hAmylin-R funct. EC50 [1]: 0.146 nM
Ratio hCT/hAmylin funct. [2]: 1.6
hCTR funct. EC50 [2]: 0.238 nM
B2: N^α1-[(4S)-4-carboxy-4-[[(4S)-4-carboxy-4-(19-carboxynonadecanoylamino)butanoyl]amino]butanoyl]-[Glu14,Arg17,Pro21,Pro27,Pro37]-h-amylin (peptide)
peptide: {C20 diacid-γGlu-γGlu}-KCNTATCATQRLAEFLRHSSPNFGAIPSSTNVGSNTP-NH2
modifications: disulfide 2-7
SMILES: CC[C@H](C)[C@H](NC(=O)[C@H](C)NC(=O)CNC(=O)[C@H](Cc1ccccc1)NC(=O)[C@H](CC(N)=O)NC(=O)[C@@H]1CCCN1C(=O)[C@H](CO)NC(=O)[C@H](CO)NC(=O)[C@H](Cc1c[nH]cn1)NC(=O)[C@H](CCCNC(=N)N)NC(=O)[C@H](CC(C)C)NC(=O)[C@H](Cc1ccccc1)NC(=O)[C@H](CCC(=O)O)NC(=O)[C@H](C)NC(=O)[C@H](CC(C)C)NC(=O)[C@H](CCCNC(=N)N)NC(=O)[C@H](CCC(N)=O)NC(=O)[C@@H](NC(=O)[C@H](C)NC(=O)[C@@H]1CSSC[C@H](NC(=O)[C@H](CCCCN)NC(=O)CC[C@H](NC(=O)CC[C@H](NC(=O)CCCCCCCCCCCCCCCCCCC(=O)O)C(=O)O)C(=O)O)C(=O)N[C@@H](CC(N)=O)C(=O)N[C@@H]([C@@H](C)O)C(=O)N[C@@H](C)C(=O)N[C@@H]([C@@H](C)O)C(=O)N1)[C@@H](C)O)C(=O)N1CCC[C@H]1C(=O)N[C@@H](CO)C(=O)N[C@@H](CO)C(=O)N[C@H](C(=O)N[C@@H](CC(N)=O)C(=O)N[C@H](C(=O)NCC(=O)N[C@@H](CO)C(=O)N[C@@H](CC(N)=O)C(=O)N[C@H](C(=O)N1CCC[C@H]1C(N)=O)[C@@H](C)O)C(C)C)[C@@H](C)O
notes: also called compound 14
